Measurements as given in patent US20220332804A1 (CSL INNOVATION, published 2022).

Key:
Assay in all cases: SPR, KD relative to WT C2;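 note: biacore SPR at 37 °C, anti-C2 mAbs captured via immobilised goat anti-human IgG, C2 alanine or serine surface mutants as analytes, 1:1 model fitted, double-referenced sensograms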
human C2 G414A = biological target: T1, human C2 G414A (human, UniProt P06681 21-752)
T1 sequence: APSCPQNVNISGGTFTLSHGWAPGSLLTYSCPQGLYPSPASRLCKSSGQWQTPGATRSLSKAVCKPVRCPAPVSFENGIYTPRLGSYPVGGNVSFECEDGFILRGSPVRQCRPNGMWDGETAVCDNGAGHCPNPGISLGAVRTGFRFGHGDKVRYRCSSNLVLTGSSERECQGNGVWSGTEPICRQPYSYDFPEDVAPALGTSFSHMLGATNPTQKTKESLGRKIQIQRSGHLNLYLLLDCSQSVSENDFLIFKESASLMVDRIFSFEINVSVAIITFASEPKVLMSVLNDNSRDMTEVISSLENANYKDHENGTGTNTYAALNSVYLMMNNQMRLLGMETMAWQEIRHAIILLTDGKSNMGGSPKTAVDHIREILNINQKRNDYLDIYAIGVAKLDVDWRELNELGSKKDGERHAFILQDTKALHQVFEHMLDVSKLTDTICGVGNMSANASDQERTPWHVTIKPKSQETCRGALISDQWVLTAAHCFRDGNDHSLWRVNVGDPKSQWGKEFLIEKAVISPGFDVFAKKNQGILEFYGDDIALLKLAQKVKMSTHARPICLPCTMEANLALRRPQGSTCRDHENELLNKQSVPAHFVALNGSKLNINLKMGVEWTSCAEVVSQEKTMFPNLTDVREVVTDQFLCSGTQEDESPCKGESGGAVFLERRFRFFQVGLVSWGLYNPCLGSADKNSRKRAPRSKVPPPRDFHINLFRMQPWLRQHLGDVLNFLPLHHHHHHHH

human C2 N403A = biological target: T2, human C2 N403A (human, UniProt P06681 21-752)
T2 sequence: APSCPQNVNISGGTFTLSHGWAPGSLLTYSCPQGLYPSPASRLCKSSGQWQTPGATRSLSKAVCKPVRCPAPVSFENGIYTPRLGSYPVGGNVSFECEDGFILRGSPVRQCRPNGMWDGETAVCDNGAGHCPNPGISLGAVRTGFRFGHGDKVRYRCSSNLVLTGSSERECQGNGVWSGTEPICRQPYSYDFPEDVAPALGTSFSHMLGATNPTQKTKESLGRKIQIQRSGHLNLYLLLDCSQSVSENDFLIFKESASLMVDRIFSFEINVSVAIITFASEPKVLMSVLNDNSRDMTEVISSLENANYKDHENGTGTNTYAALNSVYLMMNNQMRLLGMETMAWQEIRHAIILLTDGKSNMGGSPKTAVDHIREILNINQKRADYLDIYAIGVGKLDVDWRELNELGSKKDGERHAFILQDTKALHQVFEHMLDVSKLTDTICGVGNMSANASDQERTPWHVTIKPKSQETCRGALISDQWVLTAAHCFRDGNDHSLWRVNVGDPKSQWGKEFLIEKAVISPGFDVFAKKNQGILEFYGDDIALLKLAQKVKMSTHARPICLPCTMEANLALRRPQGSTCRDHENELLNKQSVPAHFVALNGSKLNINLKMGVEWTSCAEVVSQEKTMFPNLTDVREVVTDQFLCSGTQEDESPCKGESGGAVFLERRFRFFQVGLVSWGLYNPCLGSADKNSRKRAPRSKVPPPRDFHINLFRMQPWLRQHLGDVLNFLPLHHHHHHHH

human C2 P650A = biological target: T3, human C2 P650A (human, UniProt P06681 21-752)
T3 sequence: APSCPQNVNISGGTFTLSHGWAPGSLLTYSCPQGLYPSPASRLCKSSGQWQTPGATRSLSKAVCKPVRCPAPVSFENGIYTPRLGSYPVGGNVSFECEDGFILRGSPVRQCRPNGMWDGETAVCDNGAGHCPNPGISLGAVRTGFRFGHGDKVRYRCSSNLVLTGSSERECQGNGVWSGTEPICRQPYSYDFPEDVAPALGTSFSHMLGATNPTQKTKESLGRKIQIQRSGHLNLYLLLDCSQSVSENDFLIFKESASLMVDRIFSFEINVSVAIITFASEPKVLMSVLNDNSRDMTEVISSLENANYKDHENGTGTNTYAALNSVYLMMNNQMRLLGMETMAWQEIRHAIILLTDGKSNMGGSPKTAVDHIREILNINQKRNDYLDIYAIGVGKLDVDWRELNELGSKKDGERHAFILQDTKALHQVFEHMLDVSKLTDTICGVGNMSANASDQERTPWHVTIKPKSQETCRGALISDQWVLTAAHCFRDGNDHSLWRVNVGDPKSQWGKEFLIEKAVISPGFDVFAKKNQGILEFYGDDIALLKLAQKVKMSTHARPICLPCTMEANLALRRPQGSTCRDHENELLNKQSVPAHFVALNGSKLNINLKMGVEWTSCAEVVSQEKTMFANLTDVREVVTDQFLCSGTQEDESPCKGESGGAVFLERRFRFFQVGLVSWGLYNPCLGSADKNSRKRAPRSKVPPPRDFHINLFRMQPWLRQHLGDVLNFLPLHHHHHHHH

human C2 G427A = biological target: T4, human C2 G427A (human, UniProt P06681 21-752)
T4 sequence: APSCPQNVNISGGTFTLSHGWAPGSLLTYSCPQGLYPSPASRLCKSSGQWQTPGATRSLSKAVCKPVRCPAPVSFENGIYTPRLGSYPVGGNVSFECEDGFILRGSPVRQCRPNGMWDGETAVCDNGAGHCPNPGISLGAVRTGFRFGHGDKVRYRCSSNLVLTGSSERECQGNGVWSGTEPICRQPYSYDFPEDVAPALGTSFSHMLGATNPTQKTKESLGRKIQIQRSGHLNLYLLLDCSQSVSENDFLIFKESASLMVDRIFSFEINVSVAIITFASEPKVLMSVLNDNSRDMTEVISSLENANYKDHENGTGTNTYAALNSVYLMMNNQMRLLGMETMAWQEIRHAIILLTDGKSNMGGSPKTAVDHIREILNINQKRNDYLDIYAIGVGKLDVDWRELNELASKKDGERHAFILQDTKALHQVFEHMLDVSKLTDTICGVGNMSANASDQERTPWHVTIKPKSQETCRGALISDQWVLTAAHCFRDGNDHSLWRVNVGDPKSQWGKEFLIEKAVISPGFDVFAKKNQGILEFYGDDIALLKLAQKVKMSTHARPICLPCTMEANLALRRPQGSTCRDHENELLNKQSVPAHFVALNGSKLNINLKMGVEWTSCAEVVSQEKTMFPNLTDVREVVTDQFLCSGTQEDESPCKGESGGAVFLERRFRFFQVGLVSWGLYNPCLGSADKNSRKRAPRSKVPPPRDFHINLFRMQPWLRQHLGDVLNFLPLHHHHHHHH

B1: RF16-226 (antibody, human IgG4 S228P, lambda)
heavy: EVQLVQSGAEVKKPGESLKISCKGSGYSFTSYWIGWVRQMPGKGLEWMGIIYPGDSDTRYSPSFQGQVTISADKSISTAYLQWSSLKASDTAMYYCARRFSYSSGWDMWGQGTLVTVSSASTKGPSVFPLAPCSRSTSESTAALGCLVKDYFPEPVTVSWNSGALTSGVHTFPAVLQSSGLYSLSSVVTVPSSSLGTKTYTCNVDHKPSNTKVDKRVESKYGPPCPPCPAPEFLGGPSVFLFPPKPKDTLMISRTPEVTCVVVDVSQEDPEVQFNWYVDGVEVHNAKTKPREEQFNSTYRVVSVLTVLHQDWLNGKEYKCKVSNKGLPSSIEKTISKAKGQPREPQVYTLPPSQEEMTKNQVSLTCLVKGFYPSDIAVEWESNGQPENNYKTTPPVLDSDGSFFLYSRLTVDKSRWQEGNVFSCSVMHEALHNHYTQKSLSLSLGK
light: SYELTQPPSVSVSPGQTARITCSGDALTSKYVAWYQQKSGLAPLLVIYEDTRRPSGIPAKFSGSSSGSVATLTISGAHGDDEADYYCYSTDASGHQRVFGGGTKLTVLSQPKAAPSVTLFPPSSEELQANKATLVCLISDFYPGAVTVAWKADGSPVKAGVETTKPSKQSNNKYAASSYLSLTPEQWKSHRSYSCQVTHEGSTVEKTVAPTECS
notes: pH-dependent anti-C2 antibody from a phage display library; also called WT
Question: For B1, which Fold diff (human C2 G414A) is on record?
Answer: Its Fold diff is 1 fold.

Question: And the Fold diff (human C2 N403A)?
Answer: The Fold diff was 1 fold.

Question: And the Fold diff (human C2 P650A)?
Answer: Its Fold diff is 2 fold.

Question: And the Fold diff (human C2 G427A)?
Answer: The Fold diff was 0 fold.
